The supplement of paper PMC9112550, “Optimization of the antimicrobial peptide Bac7 by deep mutational scanning” (BMC Biology, 2022)

Tested on: Escherichia coli TOP10
Assay: shrunken log2 fold change of peptide-encoding DNA abundance (4.5 h post-induction vs induction); higher = less antimicrobial activity (less host growth inhibition)
Conditions: time post-induction: 4.5 h; library: site-saturation at positions 5, 18, 19, 20
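Note: peptides expressed intracellularly from a pBAD plasmid library in pooled LB shake-flask culture, induced with 0.3% L-arabinose, DNA abundance read by NGS, three biological replicates, DESeq2 with apeglm shrinkage.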

Row | Sequence | shrunken log2 fold change
1 | RRIRFRPPRLPRPRPRPPLCPRP | 0.282
2 | RRIRFRPPRLPRPRPRPPLKPRP | 0.266
3 | RRIRFRPPRLPRPRPRPPLVPRP | 0.23
4 | RRIRFRPPRLPRPRPRPPNTPRP | -0.0857
5 | RRIRFRPPRLPRPRPRPPQNPRP | 0.536
6 | RRIRFRPPRLPRPRPRPPTSPRP | 0.403
7 | RRIRFRPPRLPRPRPRPPTTPRP | 0.276
8 | RRIRFRPPRLPRPRPRPPVNPRP | 0.147
9 | RRIRFRPPRLPRPRPRPPVRPRP | 0.443
10 | RRIRFRPPRLPRPRPRPPWWPRP | 0.651
11 | RRIRFRPPRLPRPRPRPPWYPRP | -0.3
12 | RRIRFRPPRLPRPRPRPPYLPRP | -0.465
13 | RRIRFRPPRLPRPRPRPQAPPRP | 0.0778
14 | RRIRFRPPRLPRPRPRPQCFPRP | -0.0591
15 | RRIRFRPPRLPRPRPRPQCQPRP | -0.0517
16 | RRIRFRPPRLPRPRPRPQCWPRP | 0.0388
17 | RRIRFRPPRLPRPRPRPQDTPRP | -0.46
18 | RRIRFRPPRLPRPRPRPQFCPRP | -0.0625
19 | RRIRFRPPRLPRPRPRPQFHPRP | -0.839
20 | RRIRFRPPRLPRPRPRPQFSPRP | -0.401
21 | RRIRFRPPRLPRPRPRPQGAPRP | -0.0798
22 | RRIRFRPPRLPRPRPRPQGLPRP | -0.462
23 | RRIRFRPPRLPRPRPRPQIHPRP | -0.995
24 | RRIRFRPPRLPRPRPRPQIQPRP | -0.42
25 | RRIRFRPPRLPRPRPRPQKLPRP | -0.211

Row | Sequence | shrunken log2 fold change
26 | RRIRFRPPRLPRPRPRPQLAPRP | 0.0569
27 | RRIRFRPPRLPRPRPRPQMLPRP | -0.179
28 | RRIRFRPPRLPRPRPRPQQFPRP | 0.0682
29 | RRIRFRPPRLPRPRPRPQRCPRP | 0.08
30 | RRIRFRPPRLPRPRPRPQSTPRP | -0.249
31 | RRIRFRPPRLPRPRPRPQSVPRP | -0.0251
32 | RRIRFRPPRLPRPRPRPQTEPRP | -0.00927
33 | RRIRFRPPRLPRPRPRPQTQPRP | 0.0508
34 | RRIRFRPPRLPRPRPRPQVFPRP | -0.139
35 | RRIRFRPPRLPRPRPRPQVLPRP | -0.00198
36 | RRIRFRPPRLPRPRPRPQYCPRP | -0.943
37 | RRIRFRPPRLPRPRPRPRAPPRP | 0.821
38 | RRIRFRPPRLPRPRPRPRCNPRP | -0.0427
39 | RRIRFRPPRLPRPRPRPRDIPRP | -0.11
40 | RRIRFRPPRLPRPRPRPRERPRP | 1.02
41 | RRIRFRPPRLPRPRPRPRFRPRP | -0.0973
42 | RRIRFRPPRLPRPRPRPRHDPRP | 0.0736
43 | RRIRFRPPRLPRPRPRPRIDPRP | -0.0186
44 | RRIRFRPPRLPRPRPRPRIMPRP | -0.624
45 | RRIRFRPPRLPRPRPRPRIQPRP | 0.018
46 | RRIRFRPPRLPRPRPRPRKGPRP | 0.447
47 | RRIRFRPPRLPRPRPRPRKSPRP | 0.123
48 | RRIRFRPPRLPRPRPRPRKWPRP | 0.498
49 | RRIRFRPPRLPRPRPRPRLDPRP | 0.0416
50 | RRIRFRPPRLPRPRPRPRMFPRP | 0.169

Row | Sequence | shrunken log2 fold change
51 | RRIRFRPPRLPRPRPRPRMMPRP | -0.404
52 | RRIRFRPPRLPRPRPRPRNIPRP | -0.313
53 | RRIRFRPPRLPRPRPRPRPIPRP | 0.341
54 | RRIRFRPPRLPRPRPRPRPWPRP | 0.505
55 | RRIRFRPPRLPRPRPRPRQGPRP | 0.259
56 | RRIRFRPPRLPRPRPRPRQMPRP | -0.0877
57 | RRIRFRPPRLPRPRPRPRRLPRP | 0.462
58 | RRIRFRPPRLPRPRPRPRTEPRP | 0.202
59 | RRIRFRPPRLPRPRPRPRTYPRP | -0.794
60 | RRIRFRPPRLPRPRPRPRVQPRP | 0.263
61 | RRIRFRPPRLPRPRPRPRWVPRP | 0.191
62 | RRIRFRPPRLPRPRPRPRYIPRP | -0.392
63 | RRIRFRPPRLPRPRPRPRYPPRP | -0.38
64 | RRIRFRPPRLPRPRPRPRYYPRP | -0.617
65 | RRIRFRPPRLPRPRPRPSAAPRP | 0.346
66 | RRIRFRPPRLPRPRPRPSADPRP | 0.157
67 | RRIRFRPPRLPRPRPRPSANPRP | -0.395
68 | RRIRFRPPRLPRPRPRPSCGPRP | -0.235
69 | RRIRFRPPRLPRPRPRPSCNPRP | -0.714
70 | RRIRFRPPRLPRPRPRPSCPPRP | -0.72
71 | RRIRFRPPRLPRPRPRPSDRPRP | -0.853
72 | RRIRFRPPRLPRPRPRPSESPRP | -0.0918
73 | RRIRFRPPRLPRPRPRPSFDPRP | -0.62
74 | RRIRFRPPRLPRPRPRPSFGPRP | -0.112
75 | RRIRFRPPRLPRPRPRPSGKPRP | -0.0093
